# Measurements reported in article PMC6506550 (Nature Communications, 2019).
# B1: CR9501 IgG (antibody, V domains shown)
# VH: QVQLVQSGPGLVKPSQTLALTCTVSGASINSDNYYWTWIRQRPGGGLEWIGHISYTGNTYYTPSLKSRLSMSLETSQSQFSLRLTSVTAADSAVYFCAACGAYVLISNCGWFDSWGQGTQVTVSS
# VL: EIVMTQSPSSLSASIGDRVTITCQASQDISTYLNWYQQKPGQAPRLLIYGASNLETGVPSRFTGSGYGTDFSVTISSLQPEDIATYYCQQYQYLPYTFAPGTKVEIK
# notes: also called CF-647-labeled CR9501 IgG
# B2: CR9501 Fab (Fab, V domains shown)
# VH: B1 VH
# VL: B1 VL
# What was measured:
# Assay in all cases: flow cytometry on cells
# [1] = target: full-length wild-type RSV F on the cell surface (respiratory syncytial virus (strain not stated)) (UniProt P03420)
# [2] = target: T1, full-length wild-type RSV F on the cell surface (Respiratory syncytial virus, …, UniProt P03420); conditions: one partner purified
# T1 construct: also called full-length wild-type F; full-length RSV F; source: FreeStyle 293-F or HeLa cells, cotransfected with furin, on the cell surface
# [3] = target: T2, full-length RSV F with the DS-Cav1 stabilizing mutations, on the cell surface (Respiratory syncytial virus, strain not …, UniProt P03420, S155C | S290C | S190F | V207L); conditions: one partner purified
# T2 construct: source: FreeStyle 293-F, cotransfected with furin, on the cell surface
# [4] = target: T3, RSV F variant in which the cytoplasmic tail was replaced with a Foldon trimerization motif, on the cell … (Respiratory syncytial virus, strain not …, UniProt P03420, stabilised); conditions: one partner purified
# T3 construct: source: FreeStyle 293-F or HeLa cells, cotransfected with furin, on the cell surface; not shown: Foldon trimerization motif, C-terminal, kept
# [5] = target: T4, full-length RSV F with the PR-DM stabilizing mutations, on the cell surface (Respiratory syncytial virus, strain not …, UniProt P03420, N67I | S215P); conditions: one partner purified
# T4 construct: source: FreeStyle 293-F, cotransfected with furin, on the cell surface
Molecule,percent of CF-647-labeled CR9501 IgG binding blocked [1] [%],binding result [2],binding result [3],binding result [4],binding result [5]
motavizumab Fab,< 20,,,,
B1,,binds,binds,binds,binds
B2,,,,binds,
